These results are taken from patent US20230340143A1 (published 2023).

Test [1] addresses T1, human CD39 expressed at the cell surface (human, UniProt P49961 1-510).
T1 construct: On CHO transfectants, HEK-293T transfectants or endogenous on Ramos cells; also called huCD39; CHO-huCD39
T1 sequence: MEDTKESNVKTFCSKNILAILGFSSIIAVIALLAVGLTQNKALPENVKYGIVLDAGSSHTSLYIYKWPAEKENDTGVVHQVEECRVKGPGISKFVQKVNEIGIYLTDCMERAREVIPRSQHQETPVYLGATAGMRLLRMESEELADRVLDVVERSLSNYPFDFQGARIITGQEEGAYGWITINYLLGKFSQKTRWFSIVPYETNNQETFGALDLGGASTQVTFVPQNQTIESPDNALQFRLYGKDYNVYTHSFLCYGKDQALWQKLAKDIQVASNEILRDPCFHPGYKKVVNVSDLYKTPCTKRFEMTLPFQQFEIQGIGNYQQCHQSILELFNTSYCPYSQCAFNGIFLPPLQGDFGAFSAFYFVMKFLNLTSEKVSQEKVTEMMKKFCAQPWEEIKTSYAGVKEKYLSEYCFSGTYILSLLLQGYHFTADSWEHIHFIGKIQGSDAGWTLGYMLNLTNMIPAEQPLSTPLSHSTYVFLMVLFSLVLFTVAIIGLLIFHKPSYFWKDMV
Briefly: flow cytometry screen on CHO expressing huCD39 against wild type CHO. The method, then: In initial immunization protocols, the primary screen involved testing supernatant (SN) of growing clones by flow cytometry using wild type CHO and CHO expressing huCD39 cell lines. Cells were stained with 0.1 µM and 0.005 µM CFSE, respectively. […] For antibodies that bound huCD39, supernatants were then screened for inhibition of the enzymatic activity of soluble CD39 using the screening assay developed and described above (Methods).
In view of the absence of antibodies able to inhibit soluble CD39, a further immunization was carried out with a screening protocol designed to favor the generation of antibodies that bind the active site of CD39 as identified by the epitope of antibody BY40. Briefly, the primary screen involved testing supernatant (SN) of growing clones by flow cytometry using wild type CHO and CHO expressing huCD39 cell lines, as in the preceding immunizations, followed by screening for loss of binding Hek-293T cells expressing CD39 mutant 5, compared to wild-type CD39, as shown in Table 1. Mutant 5 has substitutions at residues Q96, N99, E143 and R147.
(In general: In flow cytometry, cells or beads pass a laser one at a time.)

Test [2] deals with T2, CD39 mutant 5 (human, UniProt P49961 1-510).
T2 construct: Expressed on transfected HEK-293T cells; also called M5
T2 chain: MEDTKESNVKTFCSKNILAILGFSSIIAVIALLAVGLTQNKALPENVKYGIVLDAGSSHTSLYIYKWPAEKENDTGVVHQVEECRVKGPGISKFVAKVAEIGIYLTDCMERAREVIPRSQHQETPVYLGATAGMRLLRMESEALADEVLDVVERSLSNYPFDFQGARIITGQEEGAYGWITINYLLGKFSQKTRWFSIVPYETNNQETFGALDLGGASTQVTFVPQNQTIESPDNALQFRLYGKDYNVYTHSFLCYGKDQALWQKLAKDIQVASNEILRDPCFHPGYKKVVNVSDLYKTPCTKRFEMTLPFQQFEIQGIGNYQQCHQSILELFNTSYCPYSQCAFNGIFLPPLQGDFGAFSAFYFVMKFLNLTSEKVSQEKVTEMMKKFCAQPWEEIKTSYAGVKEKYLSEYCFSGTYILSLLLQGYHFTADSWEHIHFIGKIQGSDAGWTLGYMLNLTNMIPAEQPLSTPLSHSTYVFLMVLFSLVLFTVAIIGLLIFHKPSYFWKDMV
In words: flow cytometry on HEK-293T cells expressing mutant 5. The method, then: (§1) In order to define the epitopes of the further anti-CD39 antibodies of Example 5, they were tested for loss of binding to the panel of CD39 mutants as described in Example 1 and Table 1. Mutants were transfected in Hek-293T cells, as shown in the table 1, using numbering of SEQ ID NO: 1.Dose-ranges of test antibodies (10 - 2.5 - 0.625 - 0.1563 - 0.0391 - 0.0098 - 0.0024 - 0.0006 µg/ml) are tested on the 20 generated mutants by flow cytometry.

A further test concerns the target T3, CD39 mutant 19 (human, UniProt P49961 1-510).
T3 construct: Expressed on transfected HEK-293T cells; also called M19
T3 chain: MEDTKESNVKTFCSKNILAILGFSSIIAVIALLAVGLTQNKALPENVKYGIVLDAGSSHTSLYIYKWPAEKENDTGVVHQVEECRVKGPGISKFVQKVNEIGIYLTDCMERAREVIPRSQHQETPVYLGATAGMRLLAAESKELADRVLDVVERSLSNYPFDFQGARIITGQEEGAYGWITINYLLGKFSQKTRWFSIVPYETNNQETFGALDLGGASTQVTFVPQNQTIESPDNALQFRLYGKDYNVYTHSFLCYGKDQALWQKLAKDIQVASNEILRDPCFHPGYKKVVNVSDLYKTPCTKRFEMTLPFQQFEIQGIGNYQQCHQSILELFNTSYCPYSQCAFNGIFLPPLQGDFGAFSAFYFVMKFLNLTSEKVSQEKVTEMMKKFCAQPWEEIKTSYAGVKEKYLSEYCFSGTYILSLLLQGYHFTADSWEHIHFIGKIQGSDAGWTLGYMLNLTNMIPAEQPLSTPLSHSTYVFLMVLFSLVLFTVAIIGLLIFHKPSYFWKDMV
In words: flow cytometry on HEK-293T cells expressing mutant 19. On the procedure: as §1

The target in a further test is T4, Human CD39-L1 (human, UniProt Q9Y5L3 1-495).
T4 construct: Recombinant protein coated in ELISA; also called NTPDase2; ENTPD2
T4 sequence: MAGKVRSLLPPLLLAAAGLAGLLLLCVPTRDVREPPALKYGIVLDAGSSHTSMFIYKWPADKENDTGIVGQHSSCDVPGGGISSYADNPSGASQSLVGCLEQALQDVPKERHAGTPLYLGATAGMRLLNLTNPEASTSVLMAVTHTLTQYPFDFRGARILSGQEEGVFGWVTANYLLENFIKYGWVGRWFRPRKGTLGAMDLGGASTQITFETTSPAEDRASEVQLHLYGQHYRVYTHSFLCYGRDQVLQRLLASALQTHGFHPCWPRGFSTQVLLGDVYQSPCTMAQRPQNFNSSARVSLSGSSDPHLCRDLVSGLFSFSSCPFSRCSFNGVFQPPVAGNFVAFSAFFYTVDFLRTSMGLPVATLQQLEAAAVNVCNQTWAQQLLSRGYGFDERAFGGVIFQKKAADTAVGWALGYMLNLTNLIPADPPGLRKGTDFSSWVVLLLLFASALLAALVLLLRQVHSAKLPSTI
Briefly: ELISA, recombinant isoform coated. On the procedure: Wells were washed in TBS Tween 20, and further saturated 2H at RT in TBS Blocking buffer. Dose range concentration of primary antibody was incubated in TBS blocking buffer for 2 h at RT. Wells were washed in TBS Tween 20. […] Optical density was measured on Enspire™ at OD=450.

Test [3] addresses T2, CD39 mutant 5. Briefly: flow cytometry screen on HEK-293T cells expressing CD39 mutant 5.

B1: antibody I-399 (antibody, V domains shown)
VH: PVQLQQPGAEVVMPGASVKLSCKASGYTFTSFWMNWMRQRPGQGLEWIGEIDPSDFYTNSNQRFKGKATLTVDKSSSTAYMQLSSLTSEDSAVYFCARGDFGWYFDVWGTGTSVTVSS
VL: EIVLTQSPTTMTSSPGEKITFTCSASSSINSNYLHWYQQKPGFSPKLLIYRTSNLASGVPTRFSGSGSGTSYSLTIGTMEAEDVATYYCQQGSSLPRTFGGGTKLEIK
notes: Hybridoma antibody purified on protein A
Regarding B1, in test [1], the binding result is “binds”.

B2: antibody I-396 (antibody, V domains shown)
VH: EVQLQQSGAELVKPGASVKLSCIVSGFNIKDTYINWVKQRPEQGLEWIGRIDPANGNTKYDPKFQGKATMTSDTSSNTAYLHLSSLTSDDSAVYYCARWGYDDEEADYFDSWGQGTTLTVSS
VL: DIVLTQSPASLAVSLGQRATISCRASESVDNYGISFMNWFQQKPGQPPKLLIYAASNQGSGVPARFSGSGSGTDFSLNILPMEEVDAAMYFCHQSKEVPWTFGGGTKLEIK
notes: as for B1
As to B2, the binding result (in the test with CD39 mutant 5 [2]; with CD39 mutant 19; in test [1]) was “binds” each time.

B3: antibody I-395 (antibody, V domains shown)
VH: EVQLQQSGPELVKPGASVRMSCKASGYTFTDYNMHWVKKNHGKGLEWIGYINPNNGGTTYNQKFKGKATLTVNTSSKTAYMELRSLTSEDSAVYYCTRGGTRFASWGQGTLVTVSA
VL: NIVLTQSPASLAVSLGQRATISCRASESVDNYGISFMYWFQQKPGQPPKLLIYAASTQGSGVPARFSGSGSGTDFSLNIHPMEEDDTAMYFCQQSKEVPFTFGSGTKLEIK
notes: as for B1
B3: the binding result in test [1] is listed as “binds”.

B4: antibody I-394 (antibody, V domains shown)
VH: EVQLQQSGPELVKPGASVKMSCKASGYTFTDYNMHWVKQSHGRTLEWIGYIVPLNGGSTFNQKFKGRATLTVNTSSRTAYMELRSLTSEDSAAYYCARGGTRFAYWGQGTLVTVSA
VL: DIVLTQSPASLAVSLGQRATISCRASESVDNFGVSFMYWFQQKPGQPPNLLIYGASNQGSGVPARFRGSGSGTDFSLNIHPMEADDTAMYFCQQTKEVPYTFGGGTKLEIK
notes: Mouse hybridoma antibody; also produced with human IgG1 constant domains carrying L234A/L235E/G237A/A330S/P331S (Kabat EU) and a huCk constant domain
Consider B4, for which the binding result in the test with Human CD39-L1 is “no binding”; with CD39 mutant 5 [3], “binds”.
